Data from the nanobody polyreactivity screen of Harvey et al. (2022).

Assay: yeast display, Sf9 membrane polyspecificity reagent, FACS + sequencing; frameworks hold sequencing errors
Summary of the method: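 Nanobodies came from a synthetic yeast display library in Saccharomyces cerevisiae BJ5465, induced with galactose for 36–48 hours and stained for 1 hour at 4 °C with 10% biotinylated, detergent-solubilized Sf9 membrane reagent. Cells were enriched on streptavidin microbeads and then FACS-sorted, with low and high (top ~1%) gates set on anti-HA fluorescence for expression and streptavidin fluorescence for reagent binding. Each polyreactivity label reflects the gate a clone came from. Genes were amplified by colony PCR, sequenced by MiSeq 2 × 250 and filtered by CDR length.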

Sequence	polyreactivity (PSR sort gate)
QVQLVESAGGLVQAGGSLRLSCAASGNIFSYYAMGWYRQAPGKERELVAAISRRGTNTYYADSVKGRFTISRDNAKNTVYLQMKSLKPEDTAVYYCARYGPYQSSYHYDYWGQGTQVTVSS	high polyreactivity
QVQLVESGGGLVQAGGSLRLSCAASGIIFHPYAMGWYRQAPGKERELVAVITWPGDSTYYADSVKGRFRISRDNAKNTVYLQMNSLKPEDTAVYYCNVDAWGTSGELPYDYWGQGTQVTVSS	low polyreactivity
QVQLVESGGGLVQAGGSLRLSCDASGSIFLFNAMGWYIQAPGKERELVASISRASSTSYADSVKGRFTISRDNAKNTVYLQMNSLKPEDTAVYYCAAVVASFEFRFDYWGQGTQVTVSS	low polyreactivity
QVQLGESGGGLVQSGGSLRLSCAASGIIFRNYAMGWYRPAPGKERELVATITGDGGSTYYADSVKGRFTISRDNAKNTVYFQMNSLKPEDTAVYYCAAEYHHYYYYWGEYWGQGTQVTVSS	low polyreactivity
QVQLVESGGGLVQAGGSLRLSCAASGFIFGKNDMGWYRQAPGKERELVAAITIGGSTNYADSVKGRFTISRDNAKNTVYLQMNSLTPEDTAVYYCGADATSLYNYWGLGTQVTVSS	low polyreactivity
QVQLVESGGGLVQAGGSLRLSCAASGSTFINYAMGWYRQAPGKERELVAVITSDDGSTYYADSVKGRFTISRDNAKNTVYLQMNSLKPEDTAVYYCAADYYDQRYRPGPWYDYWGQGTQVTVSS	low polyreactivity
QVQLVESGGGLVQAGGSLRLSFAASGSIFGFNAMGWYRPAPGKERELVAAISSGGITNYADSVKGRFTISRDNAKNTVYLQMNSLKAEDTAVYYCAARAVSEDYYEFDYWGQGTQVTVSS	low polyreactivity
QVQLVESGGGLVQAGGSLRLSCAASGSTFIGYAMGWYRQAPGKERELVAGIRWSGGRTYYADSVKGRFTISRDNAKNTVYLHMNSLKPEDTAVYYCNARFYASAKGYDYWGQGTQVTVSS	low polyreactivity
QVQLVESGGGLVQAGGSLRLSCAASGSNFDTYAMGRYRQAPGKERELVAAITRRAGSTYYADSVKGRFRISRDNAKNTVYLQMNSLKPEDTSVYYCAADFRYPDIYGGYDYWGQGTQVTVSS	low polyreactivity
QVQLVESGGGLVQAGGSLRLSCAASGSIFSTNAMGWYRQAPGKERELVAGISSDDSTYADSVKGRFTISRDNAKNTVYLQMNSLKQADTAVYYCAAEDNWYNVGYYYWGQGTQVTVSS	low polyreactivity
QVQLVETGGGLVQAGGSLRLSCAASVRTFHGYAMGWYRQAPGKERELVAAITCTGGRTYYADSVKGRFTISRDNAKNTVYLQMNSLKPEDTAVYYCGARPWIKSGYCGQGTQVTVSS	high polyreactivity
QVQLEESGGGLVQAGGSLRLSCAASGIIFHEYALGWYRQAPGKERELDASISWNDGSTYADSVKGRFTISRDNAKNTVYLQMNSQKPEDTAVYYCAADYPYYPFSSIYDYWGQGTQVTVSS	low polyreactivity
QVQLVESGGGLVQAGGSLRLSCAASGNIFVYYAMGWYRQAPGKERELVASITTSGGSTYYADSVKGRFTISRDNAKNTVYLQMNSLKPEDTAVYYCAALYYYWMDYWGQGTQVTVSS	low polyreactivity
QVQLVESGGGLVQAGGSLRLSCAASGYIFTDYDMGWYRPAPGKEREFVAAISSSGGSTYYADSVKGRFTISRDNAKNTVYLQMNRLKPEDTAVYYCAARRRYGRYRGAYDYWGQGTRVTVSS	high polyreactivity
QVQHVESGGGLVQAGGSLRLSCAATGRTFVYYAMGWYRQPPRKESELVASISSVGTTKYADSVKGRFTISRDNAKNTVYLQMNSLKPEDTAVYYCNNADDYSTVEFDYWGQGTQVTVSS	low polyreactivity
QVQLVESGGGLVQAGGSLRLSCAASGFTFSTYDMGWYRQAPRKERELVAAIDYIDGSTYYADSVKGRFTISRDNAKNTVDLQMNCLKPEDTAVYYCAAHYYYDEFGYWGQGTQVTVSS	low polyreactivity
QVQLVESRGGLVQAGGSLRLSCAASGSTFRTYAMGWYRQAPGKERELVADITWRGGSTYYADSVKGRFTISRDNAKNTVYLQMNSLKPEDTAVYYCATDRGPEVVLYDYWGQGTQVTVSS	low polyreactivity
QVQLVESGGGLFQSGGSLRLSCAASGITFRYYAMGWYRQAPGKERELVAAISSGGSTNYADSVKGRFTISRDNAKNSVYLQINSLKPEDTAVYYCYRRVYSRRYYGYYYWGQGTQVTVSS	high polyreactivity
QVQLVESGAGLVQAGGSLRLSCAACGSTFRGNAMGWYRQAPGKEREFVASISRRGGRTNYADSVKGRFTISRDNAKNTVYLQMNSLKPEDTAVYYCAATTVPLGDYWGQGTQVTVSS	high polyreactivity
QVQLVESGGGLVQAGGSLRLSCAASGSTLYFNAMGWYRQAPGKERELVATITSGGSTYYADSVKGRFTISRDNAKNTVYFQMNSLKPEDTAVYYCNADFGSYATNGMTPLYDYWGQGTQVTVSS	high polyreactivity
QVQLVESGGGLVQAGGSLRLSCAASGSTFVTNAMGWYSQAPGKEREFVAAISNSSGSTYYADSVKGRFTISRDNAKNTVYLQMNSLKPEDTAVYYCNATPDDWLQEDYWGQGTQVTVSS	low polyreactivity
QVQLVESGGGLVQAGGSLRLSCAASGNIFDLYARGWSRQAPGKERELVAAISASGGRTYYADSVKGRFTISRDNAKNTVYLQMNSLKPEDTAVYYCAAVASYGTDFYYWGQGTQVTVSS	high polyreactivity

Sequence	polyreactivity (PSR sort gate)
QVQLVESGGGLVQAGGSLRLSSAASGSIFYVYAMGWYRQAPGKERELVAAISGGGGSTYYADSVKGRFTISRDNAKNTVYLQMNSLKPEDTAVYYCAADLSGGPYLGGYDYWGQGTQVTVSS	high polyreactivity
QDQLVESGGGLVQAGGSLRLSCAASGFTFGNNARGWYRQAPGKERQFVATISRRGGSTYYADSVKGRFTISRDNAKYTVYLQMNSLKPEDTAVYSCAVDRAGIKLAAGYDYWGQGTQVTVSS	high polyreactivity
QVQLVESGGGLVQAGGSLRLSCAASGIIFDRYAMGWYRQAPGKERELVAAITYGGGSTYYADSVKGRFTISRDNAKNTVYLQMNSLKPEDTAVYYCAAVPRSGMYYWGQGTQVTVSS	high polyreactivity
QVQLVESGGGLVQAGGSLRLSCAASGSIFVHYALGWYRQAPGKERELVAAITVTGGTTYYADSVKGRFTISRDNAKNTVYLQMNSLKPEDTAVYYCATRANDGGWTQFGHGYDYWGQGTQVTVSS	low polyreactivity
QVQLVESAGGLVQAGGSLRLSCAPSGRTFYGNAMGWYRQAPGTERELVAAISSRGGSTYYADSVKGRFTISRDNANNTVYLQMNSLKPEDTAVYYCNVANGLSQVYRYNYWGQGTQVTVSS	high polyreactivity
QVQHVESGGGLVQAGGSLRLSCAASGLIFTTYAMGWYRQAPGKERELVADINSDGSTYYADSVKGRFTISRDNAKNTVYLQMNSLKPEDTAVYYCAASSYYTITYKLIYWRNYDYWGHGTQVTVSS	low polyreactivity
QVQLVESGGGLVQAGGSLRLSCAASGRTFPDNAMGWYRQAPGKESEFVAAISSSGSTYYADSVKGRFTISRDNAKNTVYLQMNSLKPEDTAVYYCNRDDWPSYDFTGGDYWGQGTQVTVSS	low polyreactivity
QVQLVESWGGLVQPGGSLRLRCAASGLIFGRNAMGWYRQAPGKERELVAAISWSGGSTYYADSVKGRFTISRDNAKNTVYLQMNSLKPEDTAVYYCYRYRYYGSEDDYWGQGTQVTVSS	high polyreactivity
QVQLVESGGGLVQAGGSLRLSCADSGNTFSYYAMGWYRQAPGKEREFVAAIRKSGASTYYADSVKGRFTISRDNAKNTVYLEMNSLKPEDTAVYYCAADGQVSYALGFDYCGQGTQVTVSS	high polyreactivity
QVQLVESGGGLLQAGGSLSLSCAASGRTFVPYTMGWYRPAPGKERELVAAISWSDGTTYYADSVKGRFTISRDNAKNTVYLQMNSLKPEDTAVYYCNDDVYLFNYFGGWYYAGYDYWGQGTQVTVSS	high polyreactivity
QVQLVETGGGLVQAGGRLRLSCAASGRILPGNAMGWSRQAPGKERELVAAISSGGRTNYADSVKGRFTISRDNAKNTVYLQMNSLKPEESAVYYCAKRTVWWSNWHYYPPTYNYWGQGTQVTVSS	high polyreactivity
QVQHVESVGCLVQAGGTLRLSCASSVRTFLWYTMGWYRQAPGKKRELVATITSGGRTNYADSVKGRFTISRDNAKNTVYLQMNSLNPEDTAVYYCARLGAYTGRYDYWGQGTQVTVSS	high polyreactivity
QVQLVESGGGVVQAGGSLRLSCAASGSTFYLYDMGWYRQEPGKERELVATITSGTSTTYADSVKGRYTISRDNAKNTVYLQMNSLKPEDTAVYYCNATDVGIITVGYGHGGYYWGQGTQVTVSS	low polyreactivity
QVQLVESGGGLVQAGGSLRLSCAASGSIFYGYAMGWYRQAPGKERELVAAIRSRGGSTYYADSVKGRFTNSRDNEKNTVYLQMKCLKPEDTAVYYCNAVCRARTLCSNTYGYWGQGTQVSVSS	high polyreactivity
QVQLVESGGGLVQAGGSLRLSCAASGRIFSSNAMGWYRQAPGTERELVAAITSGGSTYADSVKGRFTISRDNAKNTVYLQMNSLKPEDTAVYYCATRQGWYGWYGYWGQGTQVTVSS	high polyreactivity
QVQLVESGGGLVQAGGSLRLSCAASGRIFTYNAMGWYRQAPGKERELVATITWRGGGTYYADSVKGRFTISRDNAKNTVYLQMNSLKPEDTAVYYCNRRLPGDGQYGYRRYDYWGQGTQVTVSS	low polyreactivity
QVQLVESGGGLVQAGGSLRLSCAASGFIFYSNAMGWYRQAPGKERELVAGISRGGSTYYADSVKGRFTISRDNAKNTVYLQMNRLKPEDTAVYYCAAKISLGDDYWGQGTQVTVSS	low polyreactivity
QVQLVESGGGLVQAGGSLRLSCAASGSIFGFNAMGWYSQAPGKEREMVAAINNGGSTNYADSVKGRFTISRDNAKNTVYLQMNSLKPEDTAVYYCAAVRFRPRRNEYWGQGTQVTVSS	high polyreactivity
QVQLVETGAGLVQAGGSLRLSSAASGFIFYPYAMGWYRQAPGKERELVAVINKSSDNTYYADSVKGRFTISRDNAKNTVYLQMNSLKPEDTAVYYCAAEYVFYSRFFTEEYWGQGTQVTVSS	low polyreactivity
QVQLVESGGGLVKAGGSLRLSCAASGFIFRYYAMGWYRQAPGKERELVAAITSTGRTYYADSVKGRFTISRDNAKNTVYLQMNSLKPEDTAVYYCAKRSYPWGQGTQVTVSS	low polyreactivity
QVQLVESGGGLVQAGGSLRLSCAASGRTFWAYAMVWYRQAPGKERELVADITNGGSTYYADSVKGRFTISRDNAKNTVYLQMNSLKPEDTAVYYCNALTHWAPASYEYDYWGQGTQVTVSS	low polyreactivity
